According to paper doi:10.1101/2025.05.03.652001:

Target: E. coli lipoic acid ligase (LplA) variant A48N on the W37V background (E. coli)
Experiment: SEC-SAXS; SEC-SAXS of purified LplA variant with lipoyl-AMS; DENSS ab initio envelope fitted with the major conformer; high protein concentrations required for SAXS; dimer model generated by AlphaFold3

Substance: E. coli lipoic acid ligase (LplA) variant A48N on the W37V background (enzyme)
- stoichiometry N: 2
